In patent US20210163606A1 (ATYR PHARMA, published 2021):
Where a chain is given by its changes, count along the chain named.

Assays:
[1] = target: T1, mouse NRP2 M400A on transfected Expi293 cells (Mouse, UniProt O35375 21-931); experiment: flow cytometry, aNRP2-10v10 at 10 nM on transfected Expi293 cells gated on live, single, NRP2 expressing cells [panel 11B]
T1 construct: whole, on cells
T1 sequence (looked up): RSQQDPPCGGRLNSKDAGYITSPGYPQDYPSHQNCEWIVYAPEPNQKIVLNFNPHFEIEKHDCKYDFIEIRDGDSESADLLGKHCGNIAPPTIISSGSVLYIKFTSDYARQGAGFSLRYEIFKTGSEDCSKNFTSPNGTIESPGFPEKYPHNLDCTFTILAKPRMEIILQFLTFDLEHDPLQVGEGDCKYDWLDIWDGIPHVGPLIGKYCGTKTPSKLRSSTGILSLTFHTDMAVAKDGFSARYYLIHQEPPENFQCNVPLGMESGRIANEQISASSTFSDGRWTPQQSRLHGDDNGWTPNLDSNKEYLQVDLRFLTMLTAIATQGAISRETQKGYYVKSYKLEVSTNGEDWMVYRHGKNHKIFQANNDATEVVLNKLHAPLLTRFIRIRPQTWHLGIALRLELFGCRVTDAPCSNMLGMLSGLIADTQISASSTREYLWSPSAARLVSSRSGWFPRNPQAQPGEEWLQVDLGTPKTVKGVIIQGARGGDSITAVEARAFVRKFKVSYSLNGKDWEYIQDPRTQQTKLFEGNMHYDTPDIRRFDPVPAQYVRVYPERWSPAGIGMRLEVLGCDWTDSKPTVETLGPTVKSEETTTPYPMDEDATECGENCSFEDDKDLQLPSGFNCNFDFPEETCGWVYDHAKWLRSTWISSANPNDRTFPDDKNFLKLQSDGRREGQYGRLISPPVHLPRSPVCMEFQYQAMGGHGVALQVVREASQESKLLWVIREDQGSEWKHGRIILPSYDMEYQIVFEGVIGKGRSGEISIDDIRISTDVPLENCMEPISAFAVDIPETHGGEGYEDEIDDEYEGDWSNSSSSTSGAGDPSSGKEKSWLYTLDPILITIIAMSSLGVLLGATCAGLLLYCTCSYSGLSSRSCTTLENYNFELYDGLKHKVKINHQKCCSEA
Description: (§1) FIGS. 11A-11B show the measurement of antibody binding to Expi293 cells over-expressing NRP2. […] Gating for NRP2 over-expressing cells is shown.
(§2) Human NRP2a (version 2; see Table N1) and mouse NRP2v2 cDNAs were obtained from Origene. […] Human and mouse NRP2, expression vectors, along with expression vectors encoding all 6 mutants were transfected into Expi293 cells at 1 million cells/mL, by standard techniques. Approximately 40 hours post transfection cells were co-stained with aNRP2-10v10, and a species agnostic anti-NRP2 a1 specific binding antibody.

[2] = target: T2, mouse NRP2 I407V on transfected Expi293 cells (Mouse, UniProt O35375 21-931); experiment: as above
T2 construct: whole, on cells
T2 sequence (looked up): T1 sequence (looked up) with A380M, I387V
Description: as §1, §2

binding result [1]: no binding (tested: 10 nM)
binding result [2]: no binding (tested: 10 nM)
B1: aNRP2-10v10 (antibody, V domains shown)
VH: EVQLVQSGAEVKKPGATVKISCKVSGFNIKDYYVHWVQQAPGKGLEWMGRIDVEDDETKYAPKFQGRVTITADTSTDTAYMELSSLRSEDTAVYYCATPIYGAREAWFAYWGQGTLVTVSS
VL: DIQMTQSPSSLSASVGDRVTITCTASSSVSSSYLHWYQQKPGKAPKLLIYRTSNLASGVPSRFSGSGSGTDFTLTISSLQPEDFATYYCHQYYRSPPTFGGGTKVEIK
